Assay results taken from patent US9260500B2, “Peptide and use thereof” (Takeda Pharmaceutical Company Limited, priority 2009, dated 2016).
Non-standard residues stand in square brackets, D forms with d. 4Pal = N[C@@H](Cc1ccncc1)C(=O)O; Cha = N[C@@H](CC1CCCCC1)C(=O)O; dIva = CC[C@@](C)(N)C(=O)O; dPip = O=C(O)[C@H]1CCCCN1; dNMeA = CN[C@H](C)C(=O)O; Aib = CC(C)(N)C(=O)O

What was measured:
human Y2 receptor [1] = molecular target: T1, human Y2 receptor (Homo sapiens, UniProt P49146); assay: Human Y2 Receptor G Protein Binding Assay (GBA), [35S]GTPγS; format: biochemical; settings: EC50 of test compound/EC50 of PYY(3-36) (PYY3-36 taken as 1), hY2R/CHO membrane fraction
T1 construct: expressed in transfected cells; membrane fraction
T1 sequence (P49146 1-381): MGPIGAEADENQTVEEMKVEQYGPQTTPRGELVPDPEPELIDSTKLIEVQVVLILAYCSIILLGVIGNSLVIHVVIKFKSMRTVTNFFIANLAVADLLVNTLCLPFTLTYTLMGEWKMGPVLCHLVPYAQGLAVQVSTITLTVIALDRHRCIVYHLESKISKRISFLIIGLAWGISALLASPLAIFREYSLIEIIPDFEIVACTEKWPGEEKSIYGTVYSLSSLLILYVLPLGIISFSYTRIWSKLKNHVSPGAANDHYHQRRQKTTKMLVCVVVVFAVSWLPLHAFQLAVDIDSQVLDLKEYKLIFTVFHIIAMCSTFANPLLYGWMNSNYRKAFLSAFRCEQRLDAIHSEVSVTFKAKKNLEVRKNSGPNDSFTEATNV
Procedure: (3) Test Method: Human Y2 Receptor G Protein Binding Assay (GBA)
The agonist activity of the compound of the present invention against the human Y2 receptor was measured by the method described below.
2 μL of the test compound, serially diluted with DMSO from 100 μM to 1 nM, was dispensed to a 96-well plate, and 100 μL of the membrane fraction, previously diluted with an assay buffer (50 mM Tris, 5 mM MgCl2, 150 mM NaCl, […], 0.03% NaN3, 0.1% BSA, pH 7.4) to 1 μg protein/mL, was dispensed thereto, subsequently, 100 μL of a [^35S]GTPγS (NEG030H, PerkinElmer, previously diluted with the assay buffer to 1 nM) was added, and they were mixed by pipetting. After incubation at room temperature for 120 minutes, the mixture was filtered through the cell harvester FilterMate (PerkinElmer) using the UniFilter-96 GF/C (PerkinElmer), and the filter was washed 3 times with a filtering buffer (50 mM Tris, 5 mM MgCl2, 150 mM NaCl, 0.03% NaN3, 0.05% CHAPS, pH 7.4). Thereafter, UniFilter-96 GF/C was dried in a mechanical drier for 1 hour, 15 μl of the liquid scintillator MicroScint O (PerkinElmer) was added to each well, and a measurement was taken using TopCount (PerkinElmer). The data obtained were analyzed using Prism to calculate the EC50 value. The agonist activity of the test compound was expressed as a ratio to the EC50 value of PYY3-36 taken as 1 (EC50 Ratio: EC50 of test compound/EC50 of PYY(3-36)). The results are shown in the GBA column in Table 5 (Table 5-1-Table 5-10).

human Y2 receptor [2] = molecular target: T1, human Y2 receptor; assay: Receptor Binding Assay (RBA) for Human Y2, [125I]-PYY displacement on hY2R/CHO membrane fraction; settings: IC50 of test compound/IC50 of PYY(3-36) (PYY(3-36) taken as 1)
Procedure: (1) Construction of Expression Plasmid for the Human Y2 Receptor (Y2R) Gene
PCR was performed by a reaction using Pfu DNA polymerase ([…]), with a human brain cDNA (PT3158-1, Clontech) as the template, wherein synthetic DNAs with the following sequences were used as a combination of 5′ and 3′ primers, whereby the human Y2R gene was cloned. Primer 1 was prepared on the basis of base sequence information on the human Y2R gene (Refseq ID No. NM_000910) with the addition of Kozak's consensus sequence. Primer 2 was prepared on the basis of base sequence information on the human Y2R gene.
The PCR product obtained was cloned into pCR4-Blunt-TOPO (Invitrogen), and the plasmid was extracted according to a conventional method (QIAwell 8 Plus, QIAGEN). After confirming the base sequence, the human Y2R gene was re-cloned by a PCR reaction with the plasmid DNA as the template, using Primer 1 as the 5′ primer and Primer 2 as the 3′ primer. The PCR was performed using the Pyrobest DNA polymerase (TaKaRa). The PCR product obtained was re-cloned into pCR-Blunt II-TOPO (Invitrogen), and the plasmid was extracted according to a conventional method (QIAGEN). An Xho I restriction enzyme digestion site and an Spe I restriction enzyme digestion site are present in the cloning site of the pCR-Blunt II-TOPO; a plasmid clone was selected wherein the human Y2R gene was inserted in the orientation such that the Xho I restriction enzyme digestion site was positioned upstream of Primer 1, and the Spe I restriction enzyme digestion site was positioned downstream of Primer 2. After confirming the base sequence, the plasmid clone was digested with the restriction enzymes Xho I and Spe I to yield a DNA fragment. The DNA fragment was inserted into the animal cell expression vector pAKKO-111H (the same plasmid as pAKKO-1.111H described in Biochem. Biophys. Acta, Hinuma, S. et al., 1219, 251-259 (1994)), which was enzymatically digested with Sal I and Spe I, to yield the expression plasmid pAK-hY2R (pAKKO-111H/Y2R).
(2) Test Method: Receptor Binding Assay (RBA) for Human Y2
A human NPY2R (hY2R) stable expression cell line was acquired by transducing the animal cell expression plasmid pAK-hY2R into CHO/dhfr-cells using the CellPhect Transfection kit (Amersham Pharmacia Biotech Co.). First, 240 μl of Buffer A (attached to the CellPhect Transfection kit) was added to 9.6 μg of the plasmid DNA dissolved in 240 μl of distilled water; this mixture was stirred and allowed to stand for 10 minutes, after which 480 μL of Buffer B (attached to the CellPhect Transfection kit) was added, and the mixture was vigorously stirred to form a liposome containing the DNA. 2.5×10^5 or 4×10^5 CHO/dhfr− cells (obtained from ATCC) were seeded to 60 mm petri dishes, and cultured in Ham's F-12 medium (Sigma Co.) containing 10% fetal bovine serum (BioWest Co.) at 37° C. in 5% gaseous carbon dioxide for 1 day, after which 480 μL of the liposome was added drop by drop on to the cells in each petri dish. This was cultured at 37° C. in 5% gaseous carbon dioxide for 6 hours, after which the cells were twice washed with serum-free Ham's F-12 medium; 3 mL of 15% glycerol was added onto the cells in the petri dish and treated for 2 minutes. This was again washed 3 times with serum-free Ham's F-12 medium, after which the cells were cultured in Ham's F-12 medium containing 10% fetal bovine serum at 37° C. in 5% gaseous carbon dioxide. The cells were dispersed by trypsinization and recovered from the petri dishes, and seeded to a 6-well plate at 2.5×10^4 or 4×10^4 cells per well; cultivation was begun in Dulbecco's modified Eagle medium <DMEM> medium (Sigma Co.) containing dialyzed 10% fetal bovine serum (Invitrogen Co.) at 37° C. in 5% gaseous carbon dioxide. Since plasmid-introduced transformant CHO cells grow in the medium, whereas cells without plasmid introduction die gradually, about 20 colonies of transformed CHO cell that had grown 9-13 days after the start of the cultivation were isolated. […]

Row | Substance | GBA EC50 Ratio (human Y2 receptor [1]) | RBA IC50 Ratio (human Y2 receptor [2])
1 | Ac-[D-Hyp24, Pya(4)26, Cha27,36, Aib28,31, Lys30]-PYY(23-36) [compound No. 207] | 0.86 | 1.1
2 | Ac-[D-Iva23, D-Pro24, Cha27,28,36, Aib31]-PYY(23-36) (Ac-[dIva][dP]RH[Cha][Cha]NL[Aib]TRQR[Cha]-NH2; SMILES CC[C@@](C)(NC(C)=O)C(=O)N1CCC[C@@H]1C(=O)N[C@@H](CCCNC(=N)N)C(=O)N[C@@H](Cc1c[nH]cn1)C(=O)N[C@@H](CC1CCCCC1)C(=O)N[C@@H](CC1CCCCC1)C(=O)N[C@@H](CC(N)=O)C(=O)N[C@@H](CC(C)C)C(=O)NC(C)(C)C(=O)N[C@H](C(=O)N[C@@H](CCCNC(=N)N)C(=O)N[C@@H](CCC(N)=O)C(=O)N[C@@H](CCCNC(=N)N)C(=O)N[C@@H](CC1CCCCC1)C(N)=O)[C@@H](C)O) [compound No. 183] | 31 | 20
3 | Ac-[D-MeAla22, D-Pro24, Cha27,28,36, Aib31]-PYY(22-36) (Ac-[dNMeA]S[dP]RH[Cha][Cha]NL[Aib]TRQR[Cha]-NH2; SMILES CC(=O)N(C)[C@H](C)C(=O)N[C@@H](CO)C(=O)N1CCC[C@@H]1C(=O)N[C@@H](CCCNC(=N)N)C(=O)N[C@@H](Cc1c[nH]cn1)C(=O)N[C@@H](CC1CCCCC1)C(=O)N[C@@H](CC1CCCCC1)C(=O)N[C@@H](CC(N)=O)C(=O)N[C@@H](CC(C)C)C(=O)NC(C)(C)C(=O)N[C@H](C(=O)N[C@@H](CCCNC(=N)N)C(=O)N[C@@H](CCC(N)=O)C(=O)N[C@@H](CCCNC(=N)N)C(=O)N[C@@H](CC1CCCCC1)C(N)=O)[C@@H](C)O) [compound No. 124] | 6.1 | 3.5
4 | Ac-[D-MeAla24, Cha27,28,36, Aib31]-PYY(23-36) (Ac-S[dNMeA]RH[Cha][Cha]NL[Aib]TRQR[Cha]-NH2; SMILES CC(=O)N[C@@H](CO)C(=O)N(C)[C@H](C)C(=O)N[C@@H](CCCNC(=N)N)C(=O)N[C@@H](Cc1c[nH]cn1)C(=O)N[C@@H](CC1CCCCC1)C(=O)N[C@@H](CC1CCCCC1)C(=O)N[C@@H](CC(N)=O)C(=O)N[C@@H](CC(C)C)C(=O)NC(C)(C)C(=O)N[C@H](C(=O)N[C@@H](CCCNC(=N)N)C(=O)N[C@@H](CCC(N)=O)C(=O)N[C@@H](CCCNC(=N)N)C(=O)N[C@@H](CC1CCCCC1)C(N)=O)[C@@H](C)O) [compound No. 110] | 2.2 | 3.4
5 | Ac-[D-Pic(2)24, Cha27,28,36, Aib31]-PYY(23-36) (Ac-S[dPip]RH[Cha][Cha]NL[Aib]TRQR[Cha]-NH2; SMILES CC(=O)N[C@@H](CO)C(=O)N1CCCC[C@@H]1C(=O)N[C@@H](CCCNC(=N)N)C(=O)N[C@@H](Cc1c[nH]cn1)C(=O)N[C@@H](CC1CCCCC1)C(=O)N[C@@H](CC1CCCCC1)C(=O)N[C@@H](CC(N)=O)C(=O)N[C@@H](CC(C)C)C(=O)NC(C)(C)C(=O)N[C@H](C(=O)N[C@@H](CCCNC(=N)N)C(=O)N[C@@H](CCC(N)=O)C(=O)N[C@@H](CCCNC(=N)N)C(=O)N[C@@H](CC1CCCCC1)C(N)=O)[C@@H](C)O) [compound No. 119] | 5.8 | 9.9
6 | Ac-[D-Pro24, Aib25,28,31, Cha27,36, Lys30]-PYY(23-36) (Ac-S[dP][Aib]H[Cha][Aib]NK[Aib]TRQR[Cha]-NH2; SMILES CC(=O)N[C@@H](CO)C(=O)N1CCC[C@@H]1C(=O)NC(C)(C)C(=O)N[C@@H](Cc1c[nH]cn1)C(=O)N[C@@H](CC1CCCCC1)C(=O)NC(C)(C)C(=O)N[C@@H](CC(N)=O)C(=O)N[C@@H](CCCCN)C(=O)NC(C)(C)C(=O)N[C@H](C(=O)N[C@@H](CCCNC(=N)N)C(=O)N[C@@H](CCC(N)=O)C(=O)N[C@@H](CCCNC(=N)N)C(=O)N[C@@H](CC1CCCCC1)C(N)=O)[C@@H](C)O) [compound No. 238] | 11 | 24
7 | Ac-[D-Pro24, Aib25,28,31, Pya(4)26, Cha27,36, Lys30]-PYY(23-36) (Ac-S[dP][Aib][4Pal][Cha][Aib]NK[Aib]TRQR[Cha]-NH2; SMILES CC(=O)N[C@@H](CO)C(=O)N1CCC[C@@H]1C(=O)NC(C)(C)C(=O)N[C@@H](Cc1ccncc1)C(=O)N[C@@H](CC1CCCCC1)C(=O)NC(C)(C)C(=O)N[C@@H](CC(N)=O)C(=O)N[C@@H](CCCCN)C(=O)NC(C)(C)C(=O)N[C@H](C(=O)N[C@@H](CCCNC(=N)N)C(=O)N[C@@H](CCC(N)=O)C(=O)N[C@@H](CCCNC(=N)N)C(=O)N[C@@H](CC1CCCCC1)C(N)=O)[C@@H](C)O) [compound No. 236] | 1.7 | 8.4
8 | Ac-[D-Pro24, Aib26,28,31, Cha27,36, Lys30]-PYY(23-36) (Ac-S[dP]R[Aib][Cha][Aib]NK[Aib]TRQR[Cha]-NH2; SMILES CC(=O)N[C@@H](CO)C(=O)N1CCC[C@@H]1C(=O)N[C@@H](CCCNC(=N)N)C(=O)NC(C)(C)C(=O)N[C@@H](CC1CCCCC1)C(=O)NC(C)(C)C(=O)N[C@@H](CC(N)=O)C(=O)N[C@@H](CCCCN)C(=O)NC(C)(C)C(=O)N[C@H](C(=O)N[C@@H](CCCNC(=N)N)C(=O)N[C@@H](CCC(N)=O)C(=O)N[C@@H](CCCNC(=N)N)C(=O)N[C@@H](CC1CCCCC1)C(N)=O)[C@@H](C)O) [compound No. 235] | 2.7 | 2.1
